Measurements reported in paper PMC11375530, “The 8‐oxoguanine DNA glycosylase‐synaptotagmin 7 pathway increases extracellular vesicle release and promotes tumour metastasis during oxidative stress”.

Molecular target: OGG1 (8-oxoguanine DNA glycosylase) (UniProt O15527 1-345)
Assay: EMSA; EMSA: DNA-binding buffer (composition not given), 10 min on ice then 10 min at 37 C, 7% native PAGE in 1x TBE; pull-down: 4 C, 12 h, 1 mM PMSF, PBS washes
Conditions: protein: commercial; label: 5'-FAM on strand 2; blunt

Sequence of OGG1 (8-oxoguanine DNA glycosylase) (O15527 whole entry): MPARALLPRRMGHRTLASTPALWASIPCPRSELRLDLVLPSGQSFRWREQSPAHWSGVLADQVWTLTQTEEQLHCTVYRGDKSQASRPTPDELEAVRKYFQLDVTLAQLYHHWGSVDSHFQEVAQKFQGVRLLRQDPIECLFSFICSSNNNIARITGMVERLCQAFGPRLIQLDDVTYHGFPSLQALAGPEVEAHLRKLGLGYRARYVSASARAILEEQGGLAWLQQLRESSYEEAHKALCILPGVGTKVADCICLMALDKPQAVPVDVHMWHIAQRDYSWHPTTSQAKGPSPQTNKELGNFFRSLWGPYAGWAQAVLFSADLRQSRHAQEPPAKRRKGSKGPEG

B1: 8-oxoG-SYT7 (FAM) (dsDNA)
DNA 1: CGGGCGGGCGGGAGGGCTGGCGGGCGGCCCCC
DNA 2: GGGGGCCGCCCGCCAGCCCTCCCGCCCGCCCG
modifications: 8-oxoG at position 12 of strand 1 (printed ...CGGoGAGGG...)
  binding result: binds
